Patent publication US20260151389A1, “Use of Tetramethylpyrazine Nitrone Derivatives In The Treatment of Ischemic Stroke” (GUANGZHOU MAGPIE PHARMACEUTICALS CO., L.T.D., priority 2021, published 2026)

Tested on: patients with acute ischemic stroke
Assay: multicenter, randomized, double-blind, parallel clinical trial in acute ischemic stroke
Assay type: in vivo, human
Conditions: thrombolytic group
From the text: The present invention adopts a multicenter, randomized, double-blind, parallel trial clinical research design. The patients with acute ischemic stroke included in the clinical trial-center as subjects (all signed informed consent forms) were divided into non-thrombolytic group and thrombolytic group. The non-thrombolytic group consists of the saline group and the TBN group. The thrombolytic group consists of the t-PA group and the combination group of TBN+t-PA.
Subjects of the tests: Patients diagnosed with acute ischemic stroke were selected by clinical trial centers based on the diagnostic criteria of “Chinese Guidelines for the Diagnosis and Treatment of Acute Ischemic Stroke (2018)”.
Administration method: TBN (1400 mg) is dissolved in a sodium chloride injection bag (specification: 100 mL) and administered intravenously for 30 minutes. Dose of t-PA: 0.9 mg/Kg/dose; usage: added to physiological saline, 10% of the dose is administered via injected intravenous injection immediately within 1-2 minutes, and the remaining 90% is administered via intravenous drop infusion within 60 minutes. t-PA is administered only once on the first day of acute ischemic stroke. The medication schedule of TBN: D1-D7 administered twice a day, with an interval of 12 hours, for 7 consecutive days.

B1: t-PA: tissue type plasminogen activator ateplase (t-PA), thrombolytic drug (protein, UniProt P00750 36-562, looked up)
Tissue-type plasminogen …: SYQVICRDEKTQMIYQQHQSWLRPVLRSNRVEYCWCNSGRAQCHSVPVKSCSEPRCFNGGTCQQALYFSDFVCQCPEGFAGKCCEIDTRATCYEDQGISYRGTWSTAESGAECTNWNSSALAQKPYSGRRPDAIRLGLGNHNYCRNPDRDSKPWCYVFKAGKYSSEFCSTPACSEGNSDCYFGNGSAYRGTHSLTESGASCLPWNSMILIGKVYTAQNPSAQALGLGKHNYCRNPDGDAKPWCHVLKNRRLTWEYCDVPSCSTCGLRQYSQPQFRIKGGLFADIASHPWQAAIFAKHRRSPGERFLCGGILISSCWILSAAHCFQERFPPHHLTVILGRTYRVVPGEEEQKFEVEKYIVHKEFDDDTYDNDIALLQLKSDSSRCAQESSVVRTVCLPPADLQLPDWTECELSGYGKHEALSPFYSERLKEAHVRLYPSSRCTSQHLLNRTVTDNMLCAGDTRSGGPQANLHDACQGDSGGPLVCLNDGRMTLVGIISWGLGCGQKDVPGVYTKVTNYLDWIRDNMRP
- efficacy after 90 days compared with after 30 days of treatment: no significant difference in efficacy
- Lsmeans mRS (90th day): 1.61
